# Experimental data taken from patent US20060173159A1, “Water-soluble thioester and selenoester compounds and methods for making and using the same” (priority 2002, published 2006).
# No end group written: not given here. *: point of attachment. thioester = C-terminal thioester, without the water-soluble polymer; Acm = CC(=O)NC*
# Assay: Dissolution of deprotected and cleaved crude peptide-thioester in 50% aqueous acetonitrile containing 0.08% TFA
# Type: physicochemical
# Conditions: 50% aqueous acetonitrile containing 0.08% trifluoroacetic acid (TFA)
row,Substance,dissolution of deprotected and cleaved peptide-thioester
1,"GRFN 1852-PLP3-Leu: SEQ ID NO:4 peptide, C-terminal L-thioester joined to water-soluble polyamide polymer PLP3-Leu (C(Acm)LSQLHSGLFLYQGLLQALEGISPELGPTLDTLQLDVADFATTIWQQMEEL; not fully specified (C-terminus); also: C-terminal thioester joined to PLP3-Leu polyamide polymer)",completely dissolved
2,"GRFN 1852: SEQ ID NO:3 peptide L-thioester, non-polymer modified; comparator (C(Acm)LSQLHSGLFLYQGLLQALEGISPELGPTLDTLQLDVADFATTIWQQMEEL-thioester)",poorly soluble
